Source: patent US20210393777A1 (SHANGHAI JUNSHI BIOSCIENCES, published 2021)

B1: JS002 (antibody, human IgG4 S228P, kappa, V domains shown)
VH: QVQLQESGPGLVKPSQTLSLTCTVSGFSISSYGIHWIRQSPGKGLEWIGVIWRGGITDYNAPFMSRVTISKDNSKNQVSFKLSSVTAADTAVYYCANHRDWGQGTLVTVSS
VL: DIQMTQSPSSLSASVGDRVTITCQASQDINKYIDWYQHKPGKAPKLLIHYASTLQPGVPSRFSGSGSGRDYTFTISSLQPEDIATYYCLQYDDLWTFGQGTKVEIKR
notes: Full-length humanized antibody; In the ForteBio assay it was biotinylated with Sulfo-NHS-Biotin (protein:biotin 1:6) and held on streptavidin probes; Tested from various liquid formulations (no. 20, 28-31); also called recombinant humanized anti-PCSK9 monoclonal antibody; anti-PCSK9 antibody
B2: evolocumab (antibody, V domains shown)
VH: QVQLVQSGAEVKKPGASVKVSCKASGYTLTSYGISWVRQAPGQGLEWMGWVSFYNGNTNYAQKLQGRGTMTTDPSTSTAYMELRSLRSDDTAVYYCARGYGMDVWGQGTTVTVSS
VL: QSALTQPASVSGSPGQSITISCTGTSSDVGGYNSVSWYQQHPGKAPKLMIYEVSNRPSGVSNRFSGSKSGNTASLTISGLQAEDEADYYCNSYTSTSMVFGGGTKLTVL

Target: T1, human PCSK9 (human, UniProt Q8NBP7 31-692)
T1 construct: Soluble analyte in the ForteBio assay; also called human proprotein convertase subtilisin/kexin type 9
Assay: ForteBio BLI, biotinylated antibody on streptavidin probes, PCSK9 in solution
Protocol: ForteBio affinity assays were implemented according to the prior art. […] After the buffer exchange, the protein content was measured by the absorbance at 280 nm, and the concentration was adjusted to 2 mg/mL. 2 mg of Sulfo-NHS-Biotin was equilibrated to room temperature and added to […] of ultrapure water to give a 10 mM Biotin stock solution. 1 mL of 2 mg/mL JS002 and evolocumab were transferred to a new EP tube, and 8 μL of biotin stock solution was added according to a ratio of protein:biotin=1:6. The mixture was well mixed and incubated at room temperature for 1-2 h. […] After the buffer exchange, the protein content was measured by the absorbance at 280 nm, and the concentration was adjusted to 1-2 mg/mL. The biotinylated protein was aliquoted in tubes at 0.1 mL per tube, and was stored at −80° C. with no more than 1 freeze-thaw. […] The affinity constant was calculated by the formula=koff/kₒₙ.

Binder	Kd [nM]	koff [s⁻¹]	kon [M⁻¹ s⁻¹]
B1	0.0215	1.3e-06	60200
B2	0.651	3.21e-05	49200
